Source: publication PMC8635433 (Science Advances, 2021)

Biological target: coxsackie and adenovirus receptor (CAR), immobilised for SPR (UniProt P78310 20-365)
Assay: SPR; BIAcore T200; about 2000 RU of CAR, DSG2 and CD46 amine-coupled to a CM5 chip; fiber knob proteins flowed over, 1:2 serial dilutions; 25°C, PBS with 0.001% P20, 30 μl/min; 1:1 interaction model
Settings: both partners purified

coxsackie and adenovirus receptor (CAR), immobilised for SPR, sequence (P78310 20-365): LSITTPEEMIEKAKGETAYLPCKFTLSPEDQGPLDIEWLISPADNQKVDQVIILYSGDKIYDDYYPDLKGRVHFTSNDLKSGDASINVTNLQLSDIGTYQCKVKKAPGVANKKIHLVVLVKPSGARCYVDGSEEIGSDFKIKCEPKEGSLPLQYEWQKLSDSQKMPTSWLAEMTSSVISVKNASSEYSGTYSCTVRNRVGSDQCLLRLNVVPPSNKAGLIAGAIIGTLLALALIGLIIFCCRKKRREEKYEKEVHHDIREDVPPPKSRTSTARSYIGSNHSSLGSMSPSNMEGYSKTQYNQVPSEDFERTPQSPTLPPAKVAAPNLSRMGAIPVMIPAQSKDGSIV

B1: HAdV-C5 fiber knob protein (domain or fragment)
chain: TGAITVGNKNNDKLTLWTTPAPSPNCRLNAEKDAKLTLVLTKCGSQILATVSVLAVKGSLAPISGTVQSAHLIIRFDENGVLLNNSFLDPEYWNFRNGDLTEGTAYTNAVGFMPNLSAYPKSHGKTAKSNIVSQVYLNGDKTKPVTLTITLNGTQETGDTTPSAYSMSFSWDWSGHNYINEIFATSSYTFSYIAQE
notes: source: recombinant soluble knob protein, purified
- Kd: 60 pM
